This is an account of results in PMC10138348, “Continuous Fluorescent Sirtuin Activity Assay Based on Fatty Acylated Lysines” (International Journal of Molecular Sciences, 2023).

As a reminder, the Kd is a measure of binding affinity in units of concentration. Low values mean higher affinity, high ones lower affinity.

The target in this test is F4, TNFα-derived peptide with a myristoylated lysine and fluorescein-labelled cysteine in the +2 position. Put plainly: fluorescence polarisation; SIRT2 in serial dilution from 1.6 µM, F4 10 nM, no NAD+, BSA from zero to 300 µM; 384-well plate, 20 mM Tris-HCl pH 7.8, 150 mM NaCl, 5 mM MgCl2; three independent replicates.

B1: SIRT2 (enzyme)
chain: MAEPDPSHPLETQAGKVQEAQDSDSDSEGGAAGGEADMDFLRNLFSQTLSLGSQKERLLDELTLEGVARYMQSERCRRVICLVGAGISTSAGIPDFRSPSTGLYDNLEKYHLPYPEAIFEISYFKKHPEPFFALAKELYPGQFKPTICHYFMRLLKDKGLLLRCYTQNIDTLERIAGLEQEDLVEAHGTFYTSHCVSASCRHEYPLSWMKEKIFSEVTPKCEDCQSLVKPDIVFFGESLPARFFSCMQSDFLKVDLLLVMGTSLQVQPFASLISKAPLSTPRLLINKEKAGQSDPFLGMIMGLGGGMDFDSKKAYRDVAWLGECDQGCLALAELLGWKKELEDLVRREHASIDAQSGAGVPNPSTSASPKKSPPPAKDEARTTEREKPQ
B1 returned a Kd of 7 to 18 nM.
